The text below walks through data of US11267871B2, “Topical application for an anti-HSV antibody” (priority 2014, dated 2022).

The subject of test [1] is recurrent herpes labialis. The conditions noted are these: 5 times per day for 4 days, cited from earlier work.
The next test relates to HSV-2 G. Briefly: Topical treatment of acute genital HSV-2 infection in immunodeficient mice (survival, clinical score). The format is in vivo, mice (NOD.CB17-Prkdc^scid/NCrHsd). The conditions noted are these: for mice with acute genital HSV-2 infection / local genital symptoms resolved at 48 h (number) / mice with acute genital HSV-2 infection / local genital symptoms resolved at 48 h (percent): 48 h after start of topical treatment, ACV 1 mg twice per day ongoing; for mice with acute genital HSV-2 infection / local genital symptoms resolved at 48 h (number) / mice with acute genital HSV-2 infection / local genital symptoms resolved at 48 h (percent) / mice in which HSV-2 lethal encephalitis was prevented: hu2c single 200 μg; for mice in which HSV-2 lethal encephalitis was prevented: topical, ACV 1 mg twice per day for 4 days. The method, then:
FIG. 1: compares the survival of immunodeficient mice with acute genital HSV-2 infection after topical treatment either with the humanized monoclonal antibody hu2c or acyclovir. Female mice (NOD.CB17-Prkdc^scid/NCrHsd) were treated with a long-acting progestin (Depo-Clinovir, Pharmacia) 7 days prior to viral challenge to increase susceptibility to HSV-2 infection and to eliminate differences caused by the estrous cycle. Anesthetized mice were vaginally challenged with a lethal dose of 5×10^5 PFU of HSV-2 G (20 μl). Mice displaying visible infection (perineal hair loss, reddening, swelling) were treated one day after viral challenge (A) once with 40 μl hu2c (5 mg/ml) (●) or 40 μl control IgG (5 mg/ml) (□) or (B) twice daily for 4 days with 40 μl ACV (25 mg/ml) (Δ) or 40 μl PBS (x). Drug solutions or PBS were applied topically to the outer genital epithelium. Mice were monitored for 36 days after viral inoculation. Mice displaying sever systemic signs and/or severe lesions/zoster were killed. Surviving mice were sacrificed at day 36. Test groups contained eight animals each, control groups contained five animals each. Kaplan-Meier survival curves were analyzed by log-rank (Mantel-Cox) test. Two-tailed significance tests were used to compare the significance level between two groups. All protocols were approved by the Animal Care and Use Committee.
Mice displaying visible infection (perineal hair loss, reddening, swelling) one day after intravaginal challenge with a lethal dose of 5×10^5 PFU of HSV-2 G (20 μl) were treated (A & C) twice daily for 4 days with (A) 40 μl PBS or (C) 40 μl ACV (25 mg/ml), or treated (B & D) once at 24 h post infection with (B) 40 μl hu2c (5 mg/ml) or (D) 40 μl control IgG (5 mg/ml). Drug solutions or PBS were applied topically to the outer genital epithelium.
Infected animals were observed daily and their clinical status was scored as follows: 0, lack of symptoms, no lesions; 1-2, redeness and/or swelling (erosion); 3, localized lesion <1 mm; 4-5, localized lesion 2-3 mm; 6-7 localized lesion 4-5 mm; 8-9, severe hyperemia, destruction of the epithelium and stroma with necrosis; 10, systemic signs, death. Animals with grading >8 were killed to prevent undue suffering. Test groups contained eight animals each, control groups contained five animals each. Arrows indicate time points of treatment.
• The ability of the humanized monoclonal antibody hu2c to alter the clinical course of acute genital HSV-2 infection in immunodeficient mice following a single topical treatment with 200 μg mAb hu2c (5 mg/ml) was investigated. To infect 100% of mice as assessed by visible lesions and culture of vaginal lavage, a viral inoculum of 5×10^5 PFU of HSV-2 G was delivered to the vagina of anesthetized mice. • Although acute HSV-1 or HSV-2 infections result in a fatal outcome in 100% of mice with severe combined immunodeficiency when compared to 70-90% mortality in immunocompetent mice, the immunodeficient model has nevertheless been chosen to discriminate a possible clinical efficacy of the therapy from an elimination of the viral infection due to immune effector cells of the mouse (Minagawa et al., Arch Virol 103, 73-82 (1988); Nagafuchi et al., J Gen Virol 44, 715-723 (1979)). Within genital mucosa the expansion rates of HSV-2 are extremely rapid. At 24 h after viral challenge infected mice received topically at the infected area either twice per day for 4 days 1 mg acyclovir (ACV) (25 mg/ml) or 40 μl buffer (PBS) or a single treatment of 200 μg mAb hu2c (5 mg/ml) or 200 μg control mAb (5 mg/ml). Clinical efficacy of the HSV-specific mAb was compared to the irrelevant mAb (isotypcontrol), ACV and PBS treatment by means of Kaplan-Meier survival curves and daily assessment of the clinical status of the mucous membranes of the genital and anal area. […]

For test [2], the system named is oral herpes infection (HSV-1 or HSV-2, type not analyzed). Briefly: Topical application of humanized anti-HSV antibody in volunteers with acute recurrence of oral herpes (cold sores). The format is in vivo, human. The method, then:
1.2 Trial Description • Between 2010-2013, twelve healthy 30-59 year old volunteers (7 female, 5 male) with an acute recurrence of oral herpes infection (cold sores) were treated. Volunteers presented themselves when the onset of initial HSV symptoms (itching of the lips, burning or tingling near the lips or mouth area) occurred or had progressed to visible skin disorders on the outer lips. […] However, sometimes HSV-2 is spread to the mouth during oral sex, causing oral herpes. The type of HSV infection (HSV-1 or HSV-2) was not analyzed. • The antibody was packaged as sterile solutions either in PBS or PBS/ash créme (1:1) at concentrations of 0.7-1 mg/ml. Participants applied approx. 10 μl of the antibody topically once, once per day for two days or for a total of three times maximum.
2. Results • ZOVIRAX Cream had been evaluated in 2 double-blind, randomized, placebo (vehicle)-controlled trials (see Zovirax N-. Zovirax Prescribing Information. http://wwwaccessdatafdagov/drugsatfda_docs/label/2002/21478_zovirax_Ib|pdf#page=1&zoom=auto,0,792). • In the Zovirax studies, subjects were instructed to initiate treatment within 1 hour of noticing signs or symptoms and continue treatment for 4 days, with application of study medication 5 times per day. […] At time of treatment several small blisters were visible. For the antibody treated HSV infection a quick recovery was observed.

The mark [3] stands for this setting: 72 h after commencement of ACV treatment.
[4] abbreviates: one volunteer, upper lip, antibody three times.

`Nc1nc(=O)c2ncn(COCCO)c2[nH]1` [ACV, 2-Amino-9-(2-hydroxyethoxymethyl)-3H-purin-6-on]: the “reduction of episode duration compared with placebo” value in test [1] is 0.5 days. The “mean duration of the recurrent herpes labialis episode” value in test [1] (placebo 5 days) is listed as 4.5 days. In addition, in the test with HSV-2 G, the “mice with acute genital HSV-2 infection / local genital symptoms resolved at 48 h (number)” value is 1 out of 8, the “mice with acute genital HSV-2 infection / local genital symptoms resolved at 48 h (percent)” value is 13% and the “mice in which HSV-2 lethal encephalitis was prevented” value is 1 out of 8. In the test with HSV-2 G (setting [3]), the “mice with no local signs at 72 h (number)” value is 5 out of 8 and the “mice with no local signs at 72 h (percent)” value was determined as 63%.

B1: mAb hu2c: humanized derivative of murine mAb 2c recognizing glycoprotein B of HSV-1/2; CDRs grafted into DP28/DPK13, human γ1 and κ constant chains (antibody, V domains shown)
VH: QVTLKESGPALVKPTQTLTLTCTFSGFSLSTSGMSVGWIRQPPGKALEWLAHIWWNNDKYYKPALKSRLTISKDTSKNQVVLTMTNMDPVDTATYYCARIYYGYRPYAMDYWGQGTLVTVSS
VL: DIVMTQTPLSLPVTPGEPASISCRSSQSIVHSNGNTYLEWYLQKPGQSPQLLIYKVSNRFSGVPDRFSGSGSGTDFTLKISRVEAEDVGVYYCFQGSHVPWSFGQGTKVEIKR
modifications: VH of the humanized mAb hu2c antibody; VL of the humanized mAb hu2c antibody
notes: humanized derivative of murine mAb 2c recognizing glycoprotein B of HSV-1/2; CDRs grafted into DP28/DPK13, human γ1 and κ constant chains
Take B1: in the test on HSV-2 G, the “mice with acute genital HSV-2 infection / local genital symptoms resolved at 48 h (number)” value is 7 out of 8, the “mice with acute genital HSV-2 infection / local genital symptoms resolved at 48 h (percent)” value came out at 88% and the “mice in which HSV-2 lethal encephalitis was prevented” value was 1 out of 8. Also, the “spread of the infected area upon treatment” value in test [2] (all participants) is given as “did not spread”. For the same molecule, the “fast symptom and pain relief after application” value in test [2] (all participants, approx. 10 μl of 0.7-1 mg/ml, one to three applications) is listed as at most 24 h. The “overall rates of clinical reactivation (participants' impression)” value in test [2] (human, in vivo) is on record as “tend to be reduced”. The occurrence of lesions result in test [2] (one volunteer, upper lip) is listed as “no lesions occurred”. In test [2] (setting [4]), the “time to disappearance of blisters” value is recorded as at most 24 h and the “time until swelling subsided” value is at most 48 h. Besides, in test [2] (participants' report), the “healing when treatment started at stage of visible external herpetic lesions” value is “rapid healing and disappearance of crusted areas”. For the same molecule, the “course of active blisters” value in test [2] (participants' report or one volunteer with upper lip (antibody) and lower lip (Zovirax)) is “regressed and did not turn into weeping blisters”. Besides, the “time to elimination of the infection” value in test [2] (topical administration, acute infection of the tissue of the lips) is at most 24 h.
